From patent US20110189093A1 (PROSCAN RX PHARMA, published 2011)

B1: antibody PSf47.1 (antibody, V domains shown)
VH: EVKLQESGPDLVKPGASVKVSCKASGYTFTVYVIHWVIQKPGQGLEWIGYINPYNDGAEYNENFKGKATLTSDKSSSTAYMELSSLTSEDSAVYYCTRGENYYTSRYGFFDVWGQGTTVTVS
VL: DILMPQSPSSLAVSAGEKVTMSCKSSQSLLNSRTRKNYLAWYQQKLGQSPKLLIYWASTRESGVPDRFTGSGSGTDFTLTISSVQAEDLAVYYCKQSYNFITFGAGTKLELKR
notes: also called mAb PSf47.1
B2: antibody PSf42.3 (antibody, V domains shown)
VH: EVQLQQSGAELAKPGASVKLSCTGSGFNIKDTYMHWVKQRPEQGLEWIGGIDPETGNTKFDPRFQDKATITSDTSSNTVLLQLSSLTSEDTAVYYCANLGRPFAHWGQGTTVTVS
VL: HSADPVSISCKSSQSLLHRDGKTYLNWVFQRPGQSPQRLIYLVSLVDSGVPDRFTGSGSGTDFTLKINRVEAEDLGVYYCWQGTHFPRTFGGGTKLEIKR
B3: antibody PSf42.4 (antibody, V domains shown)
VH: EVKLQQSGAELVKPGASVKLSCTASGFSIRDTYMHWVRQRPEQGLEWITGIDPENGNSKYAPRFQDKATIIADTSSNTVHLQLDTLTSEDTAVYYCTRELAYWGQGTTVTVS
VL: DILMTQSPLTLSVIIGQPASFSCKSSHSLLHRDGRTYLNWLLQRPGQSPQRLIYLVSKLDSGVPDRFTGSGSGTDFTLKISRVEAEDLGVYYCWQGTHFPRTFGGGTKLEIKR
B4: antibody PSf42.1 (antibody, V domains shown)
VH: EVQLEESGAEFVRPGAAVKLSCTVSGLNIKDSYLHWVKQRPEQGLEWIGGIDPANGDVEYDPKFQGKAAITADTSSNTAYLRLSSLTSEDTAVYYCAPFPYWGAGTTVTVS
VL: B3 VL
B5: antibody PSf34.1 (antibody, V domains shown)
VH: EVQLEESGAELVKPGASVKLSCTASGFYIKDTYIHWVKQRPEEVLEWIGGIDPADGDTRYDPKFQGKATITADTSSNSAYLHLTSLTSEDTAVYFCARELAYWGAGTTVTVS
VL: not shown
notes: also called mAb PSf34.1

Target: T1, prostate specific membrane antigen (PSMA) on LNCaP cells (human, UniProt Q04609 1-750)
T1 construct: also called PSMA-expressing cells
T1 sequence (Q04609 whole entry): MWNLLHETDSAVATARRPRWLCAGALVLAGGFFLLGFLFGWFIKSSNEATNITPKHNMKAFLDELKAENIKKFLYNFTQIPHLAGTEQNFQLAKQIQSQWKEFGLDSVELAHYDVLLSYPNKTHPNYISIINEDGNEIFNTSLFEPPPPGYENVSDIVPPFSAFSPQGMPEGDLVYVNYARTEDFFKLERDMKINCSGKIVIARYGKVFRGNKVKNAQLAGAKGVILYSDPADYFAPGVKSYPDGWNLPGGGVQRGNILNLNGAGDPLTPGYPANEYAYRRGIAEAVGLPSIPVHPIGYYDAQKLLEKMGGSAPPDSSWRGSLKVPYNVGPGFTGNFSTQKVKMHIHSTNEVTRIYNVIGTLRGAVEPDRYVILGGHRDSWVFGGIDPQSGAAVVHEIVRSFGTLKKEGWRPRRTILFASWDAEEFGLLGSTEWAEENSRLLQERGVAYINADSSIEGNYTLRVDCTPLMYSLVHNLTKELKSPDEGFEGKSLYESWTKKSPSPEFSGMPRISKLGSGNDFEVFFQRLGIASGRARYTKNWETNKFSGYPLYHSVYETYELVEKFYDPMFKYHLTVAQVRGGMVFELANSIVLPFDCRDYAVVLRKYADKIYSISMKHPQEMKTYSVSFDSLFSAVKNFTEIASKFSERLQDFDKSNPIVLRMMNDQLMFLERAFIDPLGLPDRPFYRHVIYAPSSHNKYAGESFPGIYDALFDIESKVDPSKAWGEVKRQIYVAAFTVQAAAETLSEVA
Assay: saturation binding on whole LNCaP cells, detected with 125I goat anti-mouse IgG
Method: Antibody binding assay: Saturation binding studies were performed on whole cells with purified anti-PSMA MAb followed by detection of cellbound MAb using ¹²⁵I-labeled goat anti-mouse IgG. Briefly, nearly confluent LNCaP cells were rinsed with ice-cold PBS and scraped in PBS containing the protease inhibitor cocktail described above. Cells (7.5×10⁶ per tube) were incubated with 100 μL of antibody diluted in complete RPMI to various concentrations for 1 h at room temperature. […] Following removal of unbound secondary antibody by centrifugation, the radioactivity associated with the cell pellet was determined using a gamma counter. Non-specific binding was determined in the presence of a 100-fold molar excess of the antibody antigen PSMA₄₉₀₋₅₀₀. […] For these experiments, a parallel sample in which the primary MAb was replaced by diluent served as a control for background binding of the secondary antibody and was less than 0.5%. Counts were analyzed by non-linear regression of total binding (Y) according to the law of mass action using the formula Y=Bmax*X/(Kd+X), where Bmax, Kd, and X represent the maximal binding, the concentration of ligand at half maximal binding, and the concentration of primary antibody, respectively. The ¹²⁵I-labeled goat anti-mouse IgG used in these experiments was radio-iodinated using the chloramine T method. Briefly, 10 μg of goat anti-mouse IgG whole molecule was incubated with 300 pmol of chloramine T and 90 μCi of [¹²⁵I] sodium iodide in a final volume of 25 μL containing 0.5 M sodium phosphate (pH 7.5) for 20 min at room temperature before quenching the reaction with 100 μL of sodium metabisulfite at 2.6 mg/mL in 0.5 M sodium phosphate buffer (pH 7.5). The labeled antibody was purified from free iodide by gel filtration on Sephadex G25. The amount of free iodide contaminating the labeled antibody was evaluated by ITLC-SG and never exceeded 1%.

Binder | Bmax | Kd
B1 | 4.6 pmol/mg | –
B2 | 4.9 pmol/mg | 20.4 nM
B3 | 5.1 pmol/mg | 34.1 nM
B4 | 2.8 pmol/mg | 14.7 nM
B5 | 4.8 pmol/mg | –
